Earlier results as cited in publication PMC9240770.

Target: TREM-1 (Mus musculus) (UniProt Q9JKE2)
Test: SPR

UniProt Q9JKE2, sequence (Q9JKE2 21-230): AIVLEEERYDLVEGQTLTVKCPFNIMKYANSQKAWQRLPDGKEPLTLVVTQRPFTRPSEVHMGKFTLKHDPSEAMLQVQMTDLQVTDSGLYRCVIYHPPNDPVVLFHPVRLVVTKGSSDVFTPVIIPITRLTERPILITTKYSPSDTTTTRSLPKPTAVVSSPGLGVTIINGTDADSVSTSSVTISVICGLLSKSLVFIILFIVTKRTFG

Row | Kd [µM] | Substance
1 | 0.117 | CIRP (from UniProt P60824)
2 | 35.4 | HMGB1 (from UniProt P63158)
